Measured values published in patent publication US5965443.

How the values were obtained:
[1] = molecular target: Tn5 transposase EK54/MA56/LP372 (in-cell assay) (Escherichia coli (transposon Tn5)?) (UniProt Q46731); assay: cell_activity; details: at least about 100-fold transposase activity; assay substrate not detailed for this test
[2] = molecular target: Tn5 transposase EK54 (with MA56, pRZ5412-EK54) P372L (Escherichia coli (transposon Tn5)?) (UniProt Q46731); assay: cell_activity; details: mutant at position 54 alone; MA56 background inferred
[3] = molecular target: Tn5 transposase LP372 K54E (Escherichia coli (transposon Tn5)?) (UniProt Q46731); assay: cell_activity; details: mutant at position 372 alone; MA56 background inferred
[4] = molecular target: T1, Tn5 transposase EK54/MA56/LP372 (modified, hyperactive) (Escherichia coli (transposon Tn5)?) (UniProt Q46731); details: in vitro transposition; 0.1 M K glutamate, 25 mM Tris acetate pH 7.5, 10 mM Mg acetate, 20 C 60 min then 37 C 2-3 h; underestimates total events; scale: % of plasmid-receiving cells
T1 sequence: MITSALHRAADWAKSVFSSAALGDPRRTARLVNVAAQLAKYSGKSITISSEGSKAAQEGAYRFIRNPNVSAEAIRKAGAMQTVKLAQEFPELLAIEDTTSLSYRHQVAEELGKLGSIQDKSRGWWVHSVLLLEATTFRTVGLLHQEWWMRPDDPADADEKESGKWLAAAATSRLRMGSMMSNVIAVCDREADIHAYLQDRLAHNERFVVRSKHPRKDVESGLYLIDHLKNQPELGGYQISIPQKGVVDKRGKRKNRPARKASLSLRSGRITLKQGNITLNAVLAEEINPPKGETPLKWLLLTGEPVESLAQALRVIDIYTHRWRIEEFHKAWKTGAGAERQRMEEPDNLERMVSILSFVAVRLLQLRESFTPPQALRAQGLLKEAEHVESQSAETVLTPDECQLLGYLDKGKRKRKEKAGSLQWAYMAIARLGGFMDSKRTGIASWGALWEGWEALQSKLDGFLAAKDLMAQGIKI

Row | Substance | transposase activity (fold activity vs wild type) [1] | transposase activity (fold activity vs wild type) [2] | transposase activity (fold activity vs wild type) [3] | activity [4]
1 | lacZ-containing Tn5 transposable element in E. coli MDW320 | > 100 | 10 | 10 | –
2 | pRZTL1 circular plasmid (two inverted Tn5 19 bp OE termini) | – | – | – | 0.1
